The record followed here is paper PMC12423313, “Protein-based tools for the detection and characterisation of Oropouche virus infection” (EMBO Molecular Medicine, 2025).

T1: OROV nucleoprotein (N), recombinant, strain BeAn19991 (Oropouche virus strain BeAn19991)
T1 chain: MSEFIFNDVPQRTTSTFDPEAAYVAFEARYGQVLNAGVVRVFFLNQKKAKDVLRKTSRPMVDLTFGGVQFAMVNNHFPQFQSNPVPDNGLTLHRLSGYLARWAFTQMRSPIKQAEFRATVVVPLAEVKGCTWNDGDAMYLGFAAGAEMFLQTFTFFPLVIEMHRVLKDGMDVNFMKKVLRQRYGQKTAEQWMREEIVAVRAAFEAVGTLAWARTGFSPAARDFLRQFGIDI

T2: OROV nucleoprotein (N) of strain BeAn19991, native, in virus stocks and infected cells (Oropouche virus strain BeAn19991)
T2 construct: N protein of Oropouche virus strain BeAn19991, GenBank AJE24680.1, as made by the virus; also called OROV BeAn19991
T2 chain: T1 chain

T3: OROV nucleoprotein (N) of strain TRVL, native, in virus stock (Oropouche virus strain TRVL (stand-in: …, strain))
T3 construct: N protein of Oropouche virus strain TRVL (Anderson et al, 1961); also called OROV TRVL
T3 chain: T1 chain

T4: OROV nucleoprotein (N) of the 2023-4 epidemic isolate AM0088, native (Oropouche virus isolate AM0088, strain)
T4 construct: also called OROV AM0088 N
T4 chain: T1 chain

B1: biotinylated nanobody SpC7 (AviTag-His9) (VHH)
VHH: QVQLVESGGGLVQAGGSLRLSCAASGRTFSPNAMGWFRQAPGKEREFVSAISWSGGSTTYADSVKGRFTISRDNAKNTVSLQMNSLKPEDTAVYYCAADLEGMVVADRIWGQGTQVTVSS
notes: VHH SpC7 from an immunised llama; also called bSpC7; (biotinylated)bSpC7; not shown: AviTag, C-terminal, kept
B2: AlexaFluor568-conjugated OROV SpE8 nanobody (Cys-His8) (VHH)
VHH: QVQLVESGGGFVRAGDSLRLSCAASGRAFSTYAMGWFRQAPGKEREFVAGITLGSRITQYADSVKGRFTISRDNARQTMYLQMNNLQPEDTADYYCAARGQGSPPLRNRWSADDYNYWGQGLQVTVSS
notes: as the VHH of m21; also called OROV Sp Nb E8 CH8
B3: biotinylated nanobody NpE3 (AviTag-His9) (VHH)
VHH: QVQLVESGGGLVRPGGSLRLSCAASGFTFSNAYMTWIRQAPGKDLEWVSSIYYGDMTSYATSVKGRFTISRDNAKNTLYLQMNNLKPEDSAIYYCTKGDERGQGTQVTVSS
notes: VHH NpE3 from an immunised llama; also called bNpE3; OROV Np Nb E3 BAP H9; not shown: AviTag, C-terminal, kept
B4: AlexaFluor568-conjugated OROV NpE3 nanobody (Cys-His8) (VHH)
VHH: B3 VHH
notes: as the VHH of m13; also called OROV Np Nb E3 CH8
B5: nanobody NpF2, His8-tagged (VHH)
VHH: QVQLVESGGGAVQAGGSLRLSCAASGRTFSSFPMGWFRQAPGKEREFIAAINWSGASKYYADSVKGRFAISRDNAKNTVYLQMNSLTPEDTAVYSCAAGSGRYGYTFSKEYTYWGQGTQVIVAS
notes: as the VHH of m14; also called OROV Np Nb F2 H8; not shown: His8, C-terminal, kept
B6: OROV Gc spike region (residues 482-894 of the M polyprotein), recombinant, strain BeAn19991 (domain or fragment, Oropouche virus strain BeAn19991)
chain: DEDCLSKDIKITYQELHNCIGPKIMGDTCVSKSELYSDLFSKNLVTEYDKKYFEPDTVNDQFNKIEFAQDAHRMILLERILYKTECEMLSLKKNSGPYNVAWRTYFKNHNIDLCSRHNYKMICQCINTHSMCKNTDIDYNKEIETYYKSNAAAYRADLNTIMDTLKTAFRGLTKVLIENYIEKDDSDALKALFSNITDSVQDNYQMIGILKFASKLLDINLGRSTRSAHHSIMTNEIPKSNPFTDYSYSNLNIKECMSPESLKCFKKRDSTPHTNHLLCKIDNKYKAFDWPEIETIQKGQKLCLGDSHCNLEFTAITADKIMSLTNCYKESFTAQPADMQAGIKKCSADEIGECTTLEDKTWPIIFCGGKYYYSDSKEHAKDGSINNYCLTNKCSEQRFPIHENWFKKCNWDK
notes: Gc spike region (head and stalk domains) of the M polyprotein of Oropouche virus strain BeAn19991, GenBank AJE24679.1, residues 482-894; also called Gc spike domain

The target in experiment [1] is T5, OROV glycoprotein Gc of strain BeAn19991, native, in virus stocks and infected cells (Oropouche virus strain BeAn19991, UniProt A0A0B5CLT0).
T5 construct: On virus particles Gc stands with Gn; also called Gc spike; OROV BeAn19991
The experiment is described as follows: ELISA; sandwich ELISA with nanobodies, […]. The following applies: one partner purified.

Experiment [2] concerns the target T6, OROV glycoprotein Gc of strain TRVL, native, in virus stock (Oropouche virus strain TRVL (stand-in: …, UniProt A0A0B5CLT0, strain)).
T6 construct: also called Gc spike; OROV TRVL
The experiment is described as follows: ELISA; sandwich ELISA with nanobodies, […]. To be noted: one partner purified.

The target in experiment [3] is B6. In words: ELISA; […], biotinylated nanobody 2 µg/mL, […], room temperature. To be noted: both partners purified.
Experiment [4] addresses T5, OROV glycoprotein Gc of strain …. The experiment is described as follows: immunostaining of cells or tissue. The following applies: one partner purified.
Experiment [5] has as its target T7, OROV glycoprotein Gc of the 2023-4 epidemic isolate AM0088, native (Oropouche virus isolate AM0088 …, UniProt A0A0B5CLT0, strain).
T7 construct: also called Gc spike; OROV AM0088
The experiment is described as follows: immunostaining of cells or tissue. To be noted: one partner purified.

In experiment [6] the target is T1, OROV nucleoprotein (N), recombinant, …. In words: ELISA. To be noted: both partners purified.
Experiment [7] concerns the target T2, OROV nucleoprotein (N) of strain …. The experiment is described as follows: ELISA; sandwich ELISA with nanobodies, […]. To be noted: one partner purified. In general terms: ELISA stands for enzyme-linked immunosorbent assay.
The target in experiment [8] is T3, OROV nucleoprotein (N) of strain TRVL, …. In words: ELISA; sandwich ELISA with nanobodies, […]. To be noted: one partner purified.
The target in experiment [9] is T2, OROV nucleoprotein (N) of strain …. The experiment is described as follows: immunostaining of cells or tissue. The following applies: one partner purified.
The target of experiment [10] is T4, OROV nucleoprotein (N) of the 2023-4 …. In words: immunostaining of cells or tissue. The following applies: one partner purified.
Experiment [11] deals with T2, OROV nucleoprotein (N) of strain …. The experiment is described as follows: ELISA. The following applies: one partner purified.
For experiment [12], the target named is T3, OROV nucleoprotein (N) of strain TRVL, …. In words: ELISA. The following applies: one partner purified.
Experiment [13] addresses T8, nanobody-Fc fusion FcSpB6 (llama).
T8 construct: as the VHH of m18; also called FcSpB6-HRP; OROV FcSpB6; not shown: Fc (human IgG1 hinge and Fc domains 2 and 3), C-terminal, kept
In words: ELISA. The following applies: both partners purified.

The target in experiment [14] is T9, biotinylated nanobody-Fc fusion bFcSpC7 (C-terminal AviTag) (llama).
T9 construct: as the VHH of m20; also called OROV FcSpC7 BAP; not shown: Fc (human IgG1 hinge and Fc domains 2 and 3), C-terminal, kept; AviTag, C-terminal, kept
The experiment is described as follows: ELISA. To be noted: both partners purified.

With B1, the binding result in [1], in [2] and in [3] was “binds” each time.

Consider B2, for which the binding result in experiment [4] and in experiment [5] was “binds” throughout.

As for B3, the binding result in experiment [6], in experiment [7] and in experiment [8] was “binds” in each case.

As to B4, the binding result in experiment [9] and in experiment [10] was “binds” in each case.

Consider B5, for which the binding result in experiment [6], in experiment [11] and in experiment [12] was “binds” each time.

Regarding B6, the binding result in [13] and in experiment [14] was “binds” throughout.
